Source: the supplement of paper PMC9233669
This sample holds only a part of the variants without activity.

How the values were obtained:
biotinyl-Val-oxazolone = experiment: self-aminoacylation, catalytic enhancement (BVO) (fold over background); higher = more active; k-Seq, kA / k0A0; sequences stand for … in GGGAAUGGAUCCACAUCUACGAAUUC…UUCACUGCAGACUUGACGAAGCUG
In short: (§1)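 Mutagenized RNA pools with a 21-nt variable region (0.43 μM) reacted with each biotinyl-aminoacyl-oxazolone at 2–1250 μM. Reactions ran in 50 μL HEPES/NaCl/KCl/MgCl2/CaCl2 buffer with 5% acetonitrile, pH 6.9–7.0, for 90 minutes at room temperature. Streptavidin-captured RNA was quantified by triplicate qPCR and Illumina sequencing, and per-sequence fraction reacted was fit to a pseudo-first-order model with 1000 bootstraps. Catalytic enhancement is median kA divided by the uncatalyzed rate, the low-activity peak of a bimodal Gaussian fit.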

biotinyl-Trp-oxazolone = experiment: self-aminoacylation, catalytic enhancement (BWO) (fold over background); higher = more active; k-Seq, kA / k0A0; sequences stand for … in GGGAAUGGAUCCACAUCUACGAAUUC…UUCACUGCAGACUUGACGAAGCUG
In short: as §1

biotinyl-Leu-oxazolone = experiment: self-aminoacylation, catalytic enhancement (BLO) (fold over background); higher = more active; k-Seq, kA / k0A0; sequences stand for … in GGGAAUGGAUCCACAUCUACGAAUUC…UUCACUGCAGACUUGACGAAGCUG
In short: as §1

biotinyl-Phe-oxazolone = experiment: self-aminoacylation, catalytic enhancement (BFO) (fold over background); higher = more active; k-Seq, kA / k0A0; sequences stand for … in GGGAAUGGAUCCACAUCUACGAAUUC…UUCACUGCAGACUUGACGAAGCUG
In short: as §1

biotinyl-Met-oxazolone = experiment: self-aminoacylation, catalytic enhancement (BMO) (fold over background); higher = more active; k-Seq, kA / k0A0; sequences stand for … in GGGAAUGGAUCCACAUCUACGAAUUC…UUCACUGCAGACUUGACGAAGCUG
In short: as §1

biotinyl-Ile-oxazolone = experiment: self-aminoacylation, catalytic enhancement (BIO) (fold over background); higher = more active; k-Seq, kA / k0A0; sequences stand for … in GGGAAUGGAUCCACAUCUACGAAUUC…UUCACUGCAGACUUGACGAAGCUG
In short: as §1

## AUUCACCCAGGUCAUCGUGUG [Fam2.2 aminoacylation ribozyme variant]
biotinyl-Val-oxazolone
  self-aminoacylation: 1.04
biotinyl-Trp-oxazolone
  self-aminoacylation: 1.1
biotinyl-Leu-oxazolone
  self-aminoacylation: 1.29
biotinyl-Phe-oxazolone
  self-aminoacylation: 3.46
biotinyl-Met-oxazolone
  self-aminoacylation: 1.04
biotinyl-Ile-oxazolone
  self-aminoacylation: 0.798

## AAGUUUAGUAAUAGUCGCAAG [Fam3.1 aminoacylation ribozyme variant]
biotinyl-Val-oxazolone
  self-aminoacylation: 1.55
biotinyl-Trp-oxazolone
  self-aminoacylation: 1.23
biotinyl-Leu-oxazolone
  self-aminoacylation: 1.71
biotinyl-Phe-oxazolone
  self-aminoacylation: 3.24
biotinyl-Met-oxazolone
  self-aminoacylation: 1.75
biotinyl-Ile-oxazolone
  self-aminoacylation: 1.85

## AUUCACUUAUGUCAUCGGGUG [Fam2.2 aminoacylation ribozyme variant]
biotinyl-Val-oxazolone
  self-aminoacylation: 3.08
biotinyl-Trp-oxazolone
  self-aminoacylation: 5.18
biotinyl-Leu-oxazolone
  self-aminoacylation: 7.31
biotinyl-Phe-oxazolone
  self-aminoacylation: 42.6
biotinyl-Met-oxazolone
  self-aminoacylation: 5.5
biotinyl-Ile-oxazolone
  self-aminoacylation: 3.42

## AUUCGCCUAGGUCAUCGCGUG [Fam2.2 aminoacylation ribozyme variant]
biotinyl-Val-oxazolone
  self-aminoacylation: 10.9
biotinyl-Trp-oxazolone
  self-aminoacylation: 17.6
biotinyl-Leu-oxazolone
  self-aminoacylation: 23.4
biotinyl-Phe-oxazolone
  self-aminoacylation: 126
biotinyl-Met-oxazolone
  self-aminoacylation: 19.2
biotinyl-Ile-oxazolone
  self-aminoacylation: 10

## AUUACGCUGGUCAUCGAGUGG [Fam2.1 aminoacylation ribozyme variant]
biotinyl-Val-oxazolone
  self-aminoacylation: 1.45
biotinyl-Trp-oxazolone
  self-aminoacylation: 1.73
biotinyl-Leu-oxazolone
  self-aminoacylation: 1.87
biotinyl-Phe-oxazolone
  self-aminoacylation: 1.66
biotinyl-Met-oxazolone
  self-aminoacylation: 2.06
biotinyl-Ile-oxazolone
  self-aminoacylation: 1.46

## CUACUUCAAACAAUCCGUCGG [Fam1A.1 aminoacylation ribozyme variant]
biotinyl-Val-oxazolone
  self-aminoacylation: 0.98
biotinyl-Trp-oxazolone
  self-aminoacylation: 0.636
biotinyl-Leu-oxazolone
  self-aminoacylation: 0.901
biotinyl-Phe-oxazolone
  self-aminoacylation: 1.23
biotinyl-Met-oxazolone
  self-aminoacylation: 0.867
biotinyl-Ile-oxazolone
  self-aminoacylation: 0.947

## CUAUUUGAAACAAUCGGUCUG [Fam1A.1 aminoacylation ribozyme variant]
biotinyl-Val-oxazolone
  self-aminoacylation: 0.707
biotinyl-Trp-oxazolone
  self-aminoacylation: 0.463
biotinyl-Leu-oxazolone
  self-aminoacylation: 0.779
biotinyl-Phe-oxazolone
  self-aminoacylation: 0.697
biotinyl-Met-oxazolone
  self-aminoacylation: 0.815
biotinyl-Ile-oxazolone
  self-aminoacylation: 0.803

## AUUACCCUGGCUAUCGAGUGA [Fam2.1 aminoacylation ribozyme variant]
biotinyl-Val-oxazolone
  self-aminoacylation: 1.82
biotinyl-Trp-oxazolone
  self-aminoacylation: 2.49
biotinyl-Leu-oxazolone
  self-aminoacylation: 2.35
biotinyl-Phe-oxazolone
  self-aminoacylation: 4.17
biotinyl-Met-oxazolone
  self-aminoacylation: 2.14
biotinyl-Ile-oxazolone
  self-aminoacylation: 1.54

## AUUACCCUGGUCAUCCAGUUA [Fam2.1 aminoacylation ribozyme variant]
biotinyl-Val-oxazolone
  self-aminoacylation: 1.08
biotinyl-Trp-oxazolone
  self-aminoacylation: 0.433
biotinyl-Leu-oxazolone
  self-aminoacylation: 0.855
biotinyl-Phe-oxazolone
  self-aminoacylation: 0.726
biotinyl-Met-oxazolone
  self-aminoacylation: 0.914
biotinyl-Ile-oxazolone
  self-aminoacylation: 0.875

## AAGUUUGCUACUAGUCGUAAG [Fam3.1 aminoacylation ribozyme variant]
biotinyl-Val-oxazolone
  self-aminoacylation: 0.783
biotinyl-Trp-oxazolone
  self-aminoacylation: 0.867
biotinyl-Leu-oxazolone
  self-aminoacylation: 0.759
biotinyl-Phe-oxazolone
  self-aminoacylation: 0.833
biotinyl-Met-oxazolone
  self-aminoacylation: 0.848
biotinyl-Ile-oxazolone
  self-aminoacylation: 0.772

## CUACUUGAAACGAUCGGUCUG [Fam1A.1 aminoacylation ribozyme variant]
biotinyl-Val-oxazolone
  self-aminoacylation: 1.05
biotinyl-Trp-oxazolone
  self-aminoacylation: 0.726
biotinyl-Leu-oxazolone
  self-aminoacylation: 1.24
biotinyl-Phe-oxazolone
  self-aminoacylation: 0.916
biotinyl-Met-oxazolone
  self-aminoacylation: 1.11
biotinyl-Ile-oxazolone
  self-aminoacylation: 0.968

## CUACUUGAAACAAUCGGUCCG [Fam1A.1 aminoacylation ribozyme variant]
biotinyl-Val-oxazolone
  self-aminoacylation: 1.02
biotinyl-Trp-oxazolone
  self-aminoacylation: 1.48
biotinyl-Leu-oxazolone
  self-aminoacylation: 0.748
biotinyl-Phe-oxazolone
  self-aminoacylation: 0.497
biotinyl-Met-oxazolone
  self-aminoacylation: 1.31
biotinyl-Ile-oxazolone
  self-aminoacylation: 0.929

## AGUCGCCUAGGUCAUCGGGUG [Fam2.2 aminoacylation ribozyme variant]
biotinyl-Val-oxazolone
  self-aminoacylation: 5.42
biotinyl-Trp-oxazolone
  self-aminoacylation: 9.01
biotinyl-Leu-oxazolone
  self-aminoacylation: 7.99
biotinyl-Phe-oxazolone
  self-aminoacylation: 49
biotinyl-Met-oxazolone
  self-aminoacylation: 6.31
biotinyl-Ile-oxazolone
  self-aminoacylation: 5.29

## AAGUUUUCUAAUAGUCGCAAA [Fam3.1 aminoacylation ribozyme variant]
biotinyl-Val-oxazolone
  self-aminoacylation: 1.54
biotinyl-Trp-oxazolone
  self-aminoacylation: 2.46
biotinyl-Leu-oxazolone
  self-aminoacylation: 1.41
biotinyl-Phe-oxazolone
  self-aminoacylation: 3.41
biotinyl-Met-oxazolone
  self-aminoacylation: 1.54
biotinyl-Ile-oxazolone
  self-aminoacylation: 1.93

## CCAAACUUCAAGCAAUCGGUG [Fam1B.1 aminoacylation ribozyme variant]
biotinyl-Val-oxazolone
  self-aminoacylation: 4.43
biotinyl-Trp-oxazolone
  self-aminoacylation: 6.12
biotinyl-Leu-oxazolone
  self-aminoacylation: 8.21
biotinyl-Phe-oxazolone
  self-aminoacylation: 32.4
biotinyl-Met-oxazolone
  self-aminoacylation: 5.65
biotinyl-Ile-oxazolone
  self-aminoacylation: 4.67

## CCUCACCUCAAGCAAUCGGUC [Fam1B.1 aminoacylation ribozyme variant]
biotinyl-Val-oxazolone
  self-aminoacylation: 1.3
biotinyl-Trp-oxazolone
  self-aminoacylation: 2.12
biotinyl-Leu-oxazolone
  self-aminoacylation: 0.963
biotinyl-Phe-oxazolone
  self-aminoacylation: 4.38
biotinyl-Met-oxazolone
  self-aminoacylation: 0.79
biotinyl-Ile-oxazolone
  self-aminoacylation: 1.02

## CUAUUUCAAACAAUCGGUCUA [Fam1A.1 aminoacylation ribozyme variant]
biotinyl-Val-oxazolone
  self-aminoacylation: 0.588
biotinyl-Trp-oxazolone
  self-aminoacylation: 1.15
biotinyl-Leu-oxazolone
  self-aminoacylation: 0.571
biotinyl-Phe-oxazolone
  self-aminoacylation: 2.12
biotinyl-Met-oxazolone
  self-aminoacylation: 0.634
biotinyl-Ile-oxazolone
  self-aminoacylation: 0.713

## CCACGCUUCAAGAAAUCGGUC [Fam1B.1 aminoacylation ribozyme variant]
biotinyl-Val-oxazolone
  self-aminoacylation: 0.945
biotinyl-Trp-oxazolone
  self-aminoacylation: 8.12
biotinyl-Leu-oxazolone
  self-aminoacylation: 1.19
biotinyl-Phe-oxazolone
  self-aminoacylation: 10.3
biotinyl-Met-oxazolone
  self-aminoacylation: 0.772
biotinyl-Ile-oxazolone
  self-aminoacylation: 0.895

## GUUCACCUAGGUCAUCGGGUU [Fam2.2 aminoacylation ribozyme variant]
biotinyl-Val-oxazolone
  self-aminoacylation: 6.82
biotinyl-Trp-oxazolone
  self-aminoacylation: 9.2
biotinyl-Leu-oxazolone
  self-aminoacylation: 17.9
biotinyl-Phe-oxazolone
  self-aminoacylation: 51.7
biotinyl-Met-oxazolone
  self-aminoacylation: 13.5
biotinyl-Ile-oxazolone
  self-aminoacylation: 7.61

## CCACUCGUCAAGCAAUCGGUC [Fam1B.1 aminoacylation ribozyme variant]
biotinyl-Val-oxazolone
  self-aminoacylation: 1.58
biotinyl-Trp-oxazolone
  self-aminoacylation: 0.864
biotinyl-Leu-oxazolone
  self-aminoacylation: 1.35
biotinyl-Phe-oxazolone
  self-aminoacylation: 0.586
biotinyl-Met-oxazolone
  self-aminoacylation: 1.18
biotinyl-Ile-oxazolone
  self-aminoacylation: 1.15

## CCACACUUCAAGCAAUCCGGC [Fam1B.1 aminoacylation ribozyme variant]
biotinyl-Val-oxazolone
  self-aminoacylation: 3.66
biotinyl-Trp-oxazolone
  self-aminoacylation: 2.1
biotinyl-Leu-oxazolone
  self-aminoacylation: 2.88
biotinyl-Phe-oxazolone
  self-aminoacylation: 1.71
biotinyl-Met-oxazolone
  self-aminoacylation: 3.54
biotinyl-Ile-oxazolone
  self-aminoacylation: 3.02
